From patent US20150087577A1 (POLYPHOR, published 2015)
Bridges are numbered along the chain shown (N, C = ends). [ ]: non-standard residue; d: D form. 2Nal = N[C@@H](Cc1ccc2ccccc2c1)C(=O)O; Cit = NC(=O)NCCC[C@H](N)C(=O)O

B1: Example 64 (peptide)
peptide: cyclo(HR[Cit]CRG[dP]RR[2Nal]CYQK[dP]P)
modifications: disulfide 4-11
SMILES: N=C(N)NCCC[C@@H]1NC(=O)[C@@H]2CSSC[C@H](NC(=O)[C@H](Cc3ccc4ccccc4c3)NC(=O)[C@H](CCCNC(=N)N)NC(=O)[C@H](CCCNC(=N)N)NC(=O)[C@H]3CCCN3C(=O)CNC1=O)C(=O)N[C@@H](Cc1ccc(O)cc1)C(=O)N[C@@H](CCC(N)=O)C(=O)N[C@@H](CCCCN)C(=O)N1CCC[C@@H]1C(=O)N1CCC[C@H]1C(=O)N[C@@H](Cc1c[nH]cn1)C(=O)N[C@@H](CCCNC(=N)N)C(=O)N[C@@H](CCCNC(N)=O)C(=O)N2
B2: Example 60 (peptide)
peptide: cyclo(YR[Cit]CRG[dP]RR[2Nal]CYQQ[dP]P)
modifications: disulfide 4-11
SMILES: N=C(N)NCCC[C@@H]1NC(=O)[C@@H]2CSSC[C@H](NC(=O)[C@H](Cc3ccc4ccccc4c3)NC(=O)[C@H](CCCNC(=N)N)NC(=O)[C@H](CCCNC(=N)N)NC(=O)[C@H]3CCCN3C(=O)CNC1=O)C(=O)N[C@@H](Cc1ccc(O)cc1)C(=O)N[C@@H](CCC(N)=O)C(=O)N[C@@H](CCC(N)=O)C(=O)N1CCC[C@@H]1C(=O)N1CCC[C@H]1C(=O)N[C@@H](Cc1ccc(O)cc1)C(=O)N[C@@H](CCCNC(=N)N)C(=O)N[C@@H](CCCNC(N)=O)C(=O)N2
B3: Example 66 (peptide)
peptide: cyclo(WR[Cit]CRG[dP]RR[2Nal]CYQK[dP]P)
modifications: disulfide 4-11
SMILES: N=C(N)NCCC[C@@H]1NC(=O)[C@@H]2CSSC[C@H](NC(=O)[C@H](Cc3ccc4ccccc4c3)NC(=O)[C@H](CCCNC(=N)N)NC(=O)[C@H](CCCNC(=N)N)NC(=O)[C@H]3CCCN3C(=O)CNC1=O)C(=O)N[C@@H](Cc1ccc(O)cc1)C(=O)N[C@@H](CCC(N)=O)C(=O)N[C@@H](CCCCN)C(=O)N1CCC[C@@H]1C(=O)N1CCC[C@H]1C(=O)N[C@@H](Cc1c[nH]c3ccccc13)C(=O)N[C@@H](CCCNC(=N)N)C(=O)N[C@@H](CCCNC(N)=O)C(=O)N2
B4: Example 56 (peptide)
peptide: cyclo(YR[Cit]CRG[dP]TR[2Nal]CYQK[dP]P)
modifications: disulfide 4-11
SMILES: C[C@@H](O)[C@@H]1NC(=O)[C@H]2CCCN2C(=O)CNC(=O)[C@H](CCCNC(=N)N)NC(=O)[C@@H]2CSSC[C@H](NC(=O)[C@H](Cc3ccc4ccccc4c3)NC(=O)[C@H](CCCNC(=N)N)NC1=O)C(=O)N[C@@H](Cc1ccc(O)cc1)C(=O)N[C@@H](CCC(N)=O)C(=O)N[C@@H](CCCCN)C(=O)N1CCC[C@@H]1C(=O)N1CCC[C@H]1C(=O)N[C@@H](Cc1ccc(O)cc1)C(=O)N[C@@H](CCCNC(=N)N)C(=O)N[C@@H](CCCNC(N)=O)C(=O)N2
B5: Example 65 (peptide)
peptide: cyclo(IR[Cit]CRG[dP]RR[2Nal]CYQK[dP]P)
modifications: disulfide 4-11
SMILES: CC[C@H](C)[C@@H]1NC(=O)[C@@H]2CCCN2C(=O)[C@H]2CCCN2C(=O)[C@H](CCCCN)NC(=O)[C@H](CCC(N)=O)NC(=O)[C@H](Cc2ccc(O)cc2)NC(=O)[C@@H]2CSSC[C@H](NC(=O)[C@H](CCCNC(N)=O)NC(=O)[C@H](CCCNC(=N)N)NC1=O)C(=O)N[C@@H](CCCNC(=N)N)C(=O)NCC(=O)N1CCC[C@@H]1C(=O)N[C@@H](CCCNC(=N)N)C(=O)N[C@@H](CCCNC(=N)N)C(=O)N[C@@H](Cc1ccc3ccccc3c1)C(=O)N2
B6: Example 3 (peptide)
peptide: cyclo(YR[Cit]FRRR[2Nal]FY[Cit]K[dP]P)
SMILES: N=C(N)NCCC[C@@H]1NC(=O)[C@H](CCCNC(=N)N)NC(=O)[C@H](Cc2ccccc2)NC(=O)[C@H](CCCNC(N)=O)NC(=O)[C@H](CCCNC(=N)N)NC(=O)[C@H](Cc2ccc(O)cc2)NC(=O)[C@@H]2CCCN2C(=O)[C@H]2CCCN2C(=O)[C@H](CCCCN)NC(=O)[C@H](CCCNC(N)=O)NC(=O)[C@H](Cc2ccc(O)cc2)NC(=O)[C@H](Cc2ccccc2)NC(=O)[C@H](Cc2ccc3ccccc3c2)NC(=O)[C@H](CCCNC(=N)N)NC1=O
B7: Example 61 (peptide)
peptide: cyclo(YR[Cit]CRG[dP]RR[2Nal]CYQE[dP]P)
modifications: disulfide 4-11
SMILES: N=C(N)NCCC[C@@H]1NC(=O)[C@@H]2CSSC[C@H](NC(=O)[C@H](Cc3ccc4ccccc4c3)NC(=O)[C@H](CCCNC(=N)N)NC(=O)[C@H](CCCNC(=N)N)NC(=O)[C@H]3CCCN3C(=O)CNC1=O)C(=O)N[C@@H](Cc1ccc(O)cc1)C(=O)N[C@@H](CCC(N)=O)C(=O)N[C@@H](CCC(=O)O)C(=O)N1CCC[C@@H]1C(=O)N1CCC[C@H]1C(=O)N[C@@H](Cc1ccc(O)cc1)C(=O)N[C@@H](CCCNC(=N)N)C(=O)N[C@@H](CCCNC(N)=O)C(=O)N2
B8: Example 58 (peptide)
peptide: cyclo(YR[Cit]CRG[dP]RR[2Nal]CYHK[dP]P)
modifications: disulfide 4-11
SMILES: N=C(N)NCCC[C@@H]1NC(=O)[C@@H]2CSSC[C@H](NC(=O)[C@H](Cc3ccc4ccccc4c3)NC(=O)[C@H](CCCNC(=N)N)NC(=O)[C@H](CCCNC(=N)N)NC(=O)[C@H]3CCCN3C(=O)CNC1=O)C(=O)N[C@@H](Cc1ccc(O)cc1)C(=O)N[C@@H](Cc1c[nH]cn1)C(=O)N[C@@H](CCCCN)C(=O)N1CCC[C@@H]1C(=O)N1CCC[C@H]1C(=O)N[C@@H](Cc1ccc(O)cc1)C(=O)N[C@@H](CCCNC(=N)N)C(=O)N[C@@H](CCCNC(N)=O)C(=O)N2
B9: Example 59 (peptide)
peptide: cyclo(YR[Cit]CRG[dP]RR[2Nal]CYYK[dP]P)
modifications: disulfide 4-11
SMILES: N=C(N)NCCC[C@@H]1NC(=O)[C@@H]2CSSC[C@H](NC(=O)[C@H](Cc3ccc4ccccc4c3)NC(=O)[C@H](CCCNC(=N)N)NC(=O)[C@H](CCCNC(=N)N)NC(=O)[C@H]3CCCN3C(=O)CNC1=O)C(=O)N[C@@H](Cc1ccc(O)cc1)C(=O)N[C@@H](Cc1ccc(O)cc1)C(=O)N[C@@H](CCCCN)C(=O)N1CCC[C@@H]1C(=O)N1CCC[C@H]1C(=O)N[C@@H](Cc1ccc(O)cc1)C(=O)N[C@@H](CCCNC(=N)N)C(=O)N[C@@H](CCCNC(N)=O)C(=O)N2
B10: Example 55 (peptide)
peptide: cyclo(YR[Cit]CRG[dP]WR[2Nal]CYQK[dP]P)
modifications: disulfide 4-11
SMILES: N=C(N)NCCC[C@@H]1NC(=O)[C@@H]2CSSC[C@H](NC(=O)[C@H](Cc3ccc4ccccc4c3)NC(=O)[C@H](CCCNC(=N)N)NC(=O)[C@H](Cc3c[nH]c4ccccc34)NC(=O)[C@H]3CCCN3C(=O)CNC1=O)C(=O)N[C@@H](Cc1ccc(O)cc1)C(=O)N[C@@H](CCC(N)=O)C(=O)N[C@@H](CCCCN)C(=O)N1CCC[C@@H]1C(=O)N1CCC[C@H]1C(=O)N[C@@H](Cc1ccc(O)cc1)C(=O)N[C@@H](CCCNC(=N)N)C(=O)N[C@@H](CCCNC(N)=O)C(=O)N2
B11: Example 67 (peptide)
peptide: cyclo(TR[Cit]CRG[dP]RR[2Nal]CYQK[dP]P)
modifications: disulfide 4-11
SMILES: C[C@@H](O)[C@@H]1NC(=O)[C@@H]2CCCN2C(=O)[C@H]2CCCN2C(=O)[C@H](CCCCN)NC(=O)[C@H](CCC(N)=O)NC(=O)[C@H](Cc2ccc(O)cc2)NC(=O)[C@@H]2CSSC[C@H](NC(=O)[C@H](CCCNC(N)=O)NC(=O)[C@H](CCCNC(=N)N)NC1=O)C(=O)N[C@@H](CCCNC(=N)N)C(=O)NCC(=O)N1CCC[C@@H]1C(=O)N[C@@H](CCCNC(=N)N)C(=O)N[C@@H](CCCNC(=N)N)C(=O)N[C@@H](Cc1ccc3ccccc3c1)C(=O)N2
B12: Example 63 (peptide)
peptide: cyclo(RR[Cit]CRG[dP]RR[2Nal]CYQK[dP]P)
modifications: disulfide 4-11
SMILES: N=C(N)NCCC[C@@H]1NC(=O)[C@@H]2CSSC[C@H](NC(=O)[C@H](Cc3ccc4ccccc4c3)NC(=O)[C@H](CCCNC(=N)N)NC(=O)[C@H](CCCNC(=N)N)NC(=O)[C@H]3CCCN3C(=O)CNC1=O)C(=O)N[C@@H](Cc1ccc(O)cc1)C(=O)N[C@@H](CCC(N)=O)C(=O)N[C@@H](CCCCN)C(=O)N1CCC[C@@H]1C(=O)N1CCC[C@H]1C(=O)N[C@@H](CCCNC(=N)N)C(=O)N[C@@H](CCCNC(=N)N)C(=O)N[C@@H](CCCNC(N)=O)C(=O)N2
B13: Example 57 (peptide)
peptide: cyclo(YR[Cit]CRG[dP]RR[2Nal]CYRK[dP]P)
modifications: disulfide 4-11
SMILES: N=C(N)NCCC[C@@H]1NC(=O)[C@@H]2CSSC[C@H](NC(=O)[C@H](Cc3ccc4ccccc4c3)NC(=O)[C@H](CCCNC(=N)N)NC(=O)[C@H](CCCNC(=N)N)NC(=O)[C@H]3CCCN3C(=O)CNC1=O)C(=O)N[C@@H](Cc1ccc(O)cc1)C(=O)N[C@@H](CCCNC(=N)N)C(=O)N[C@@H](CCCCN)C(=O)N1CCC[C@@H]1C(=O)N1CCC[C@H]1C(=O)N[C@@H](Cc1ccc(O)cc1)C(=O)N[C@@H](CCCNC(=N)N)C(=O)N[C@@H](CCCNC(N)=O)C(=O)N2
B14: Example 62 (peptide)
peptide: cyclo(QR[Cit]CRG[dP]RR[2Nal]CYQK[dP]P)
modifications: disulfide 4-11
SMILES: N=C(N)NCCC[C@@H]1NC(=O)[C@@H]2CSSC[C@H](NC(=O)[C@H](Cc3ccc4ccccc4c3)NC(=O)[C@H](CCCNC(=N)N)NC(=O)[C@H](CCCNC(=N)N)NC(=O)[C@H]3CCCN3C(=O)CNC1=O)C(=O)N[C@@H](Cc1ccc(O)cc1)C(=O)N[C@@H](CCC(N)=O)C(=O)N[C@@H](CCCCN)C(=O)N1CCC[C@@H]1C(=O)N1CCC[C@H]1C(=O)N[C@@H](CCC(N)=O)C(=O)N[C@@H](CCCNC(=N)N)C(=O)N[C@@H](CCCNC(N)=O)C(=O)N2

Target: human CXCR4 (human, UniProt P61073 1-352)
Sequence (P61073 whole entry): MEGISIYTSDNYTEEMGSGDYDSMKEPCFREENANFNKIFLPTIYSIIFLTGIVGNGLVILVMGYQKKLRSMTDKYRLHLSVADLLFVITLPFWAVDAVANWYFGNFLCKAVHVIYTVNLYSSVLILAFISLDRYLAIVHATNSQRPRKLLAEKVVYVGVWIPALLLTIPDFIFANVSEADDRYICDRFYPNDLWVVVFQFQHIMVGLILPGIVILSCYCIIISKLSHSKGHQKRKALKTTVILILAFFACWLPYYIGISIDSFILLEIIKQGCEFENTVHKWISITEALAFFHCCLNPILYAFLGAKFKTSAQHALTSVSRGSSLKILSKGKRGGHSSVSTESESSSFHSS
Experiment: cell-based or functional assay

In order of falling “IC50 (nM) Ca2+ assay (method 2)” value:
1. B8  10.5 nM
2. B9  7.8 nM
3. B10  6.3 nM
4. B13  4.2 nM
5. B7  4.1 nM
6. B5  3.9 nM
7. B3  3.8 nM
8. B1  3.3 nM
9. B11  2.4 nM
10. B12  2 nM
11. B14  1.8 nM
12. B4  0.74 nM
13. B2  0.18 nM

B6 was tested, and the “IC50 (nM) Ca2+ assay (method 1)” value was 1000 nM.
